Source: US20030194727

Key:
[1] = system: K5 ZFP (VSSR-DGNV-VSSR-VDYK-Gal4AD) (Artificial Sequence); assay: EMSA; settings: reference for the mutant comparison; binding of parent K5 implied by gel shift; exact probe not given, degenerate expected site
[2] = system: K5 mutant ZFP (VSSR-DGAV-VSSR-VDYK-Gal4AD) N80A (Asn DNA-contacting residue of finger 2, DGNV to DGAV; position counted in SEQ 225) (Artificial Sequence); assay: EMSA; settings: at least 10-fold decrease in DNA-binding affinity for expected site; no ketoconazole resistance in yeast
K5 mutant ZFP (VSSR-DGAV-VSSR-VDYK-Gal4AD) N80A (Asn DNA-contacting residue of finger 2, DGNV to DGAV; position counted in SEQ 225) (Artificial Sequence), sequence (chain, as listed by the source N80A): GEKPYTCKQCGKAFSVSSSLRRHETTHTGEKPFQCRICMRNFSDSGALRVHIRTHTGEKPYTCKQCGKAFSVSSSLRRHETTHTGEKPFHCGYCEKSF

K5 ZFP (VSSR-DGNV-VSSR-VDYK-Gal4AD) (Artificial Sequence), sequence (chain, as listed by the source): as the sequence (chain, as listed by the source N80A) above, with A47N counted along it

With “KATGTDAACGTD (double strand) [K5 expected target site]” the binding signal [1] was 1 and the binding signal [2] was < 0.1 fold of K5.
